{"source": "patent US20210221874A1", "about": "(TRUSTEES OF TUFTS COLLEGE, published 2021)", "binders": {"B1": {"name": "JKH-D12 (VHH)", "VHH": "QVQLVETGGGLVQAGGTLRLSCAASGRTFTSYYIGWFRQEPGKEREFVASIGWTDDNTYYADSVKGRFTISRDNAETTAYLQMSGLKPEDTAVYYCAADYGSGIRAWYNWIYWGQGTQVTVSS"}, "B2": {"name": "JIJ-D3 (VHH)", "VHH": "QVQLVETGGLVQPGGSLRLSCAASGLTFSSTAMAWFRQAPGKEREFVARISGAGITIYYSDSVKDRFTISRNNVENTVYLQMNSLKTEDTAVYYCAARRNTYTSDYNIPARYPYWGQGTQVTVSS"}, "B3": {"name": "JKH-A4 (VHH)", "VHH": "QVQLAETGGGLVQAGGSLRLSCSASGLTFGNYAMGWFRQAPGKEREFVASISRSGSNTWYAEPLKGRFAISRDNDKNALYLQMNSLKPEDTAVYYCAGGSYNSDWWNYMYWGQGTQVTVSS"}, "B4": {"name": "JIK-B8 (VHH)", "VHH": "SGGGLVQPGGSLGLSCVVASERSINNYGMGWYRQAPGKQRELVAQISSGGTTNYADSVEGRFTISRDNVKKMVHLQVNSLKPEDTAVYYCNSLLRTFSWGQGTQVTVSS"}, "B5": {"name": "JIJ-A12 (VHH)", "VHH": "QVQLVESGGGLVQPGGSLRLSCAASGIIFSIYTMGWYRQAPGKQRELVAAIPSGPSANATDSVGGRFTITRDNAENTVYLQMNDLKPEDTAVYYCNARRGPGIKNYWGQGTQVTVSS"}, "B6": {"name": "JIJ-E9 (VHH)", "VHH": "QVQLVETGGLVQPGGSLRLSCAASRSTTATIYSMNWYRQAPGKQRELVAGMTSDGQTNYATSVKGRFTISRDNAKNTVYLLMNSLKLEDTAVYYCYVKPWRLQGWDYWGQGTQVTVSS"}, "B7": {"name": "JHD-B6 (VHH)", "VHH": "QVQLVESGGGLVQPGGSLRLSCAASGSSFSRYAMRWYRQAPGKQRELVANINSRGTSNYADSVKGRFTISRDNAKNTVYLQMNSLKPEDTAVYYCNAEWLGRSEPSWGQGTQVTVSS"}, "B8": {"name": "JKH-C7 (VHH)", "VHH": "VQLVESGGGGLVQAGGSLRLSCAASGRTFSGYAMGWFRQAPGKEREFVADISWSGHNTYYGDSVKGRFTISRDTAKNTVYLQMNSLKPEDTAVYYCAAEGARTHLSDSYYFPGLWAEPPVGYWGQGTQVTVSS", "notes": "also called JHK-C7"}, "B9": {"name": "JKO-B8 (VHH)", "VHH": "QLQLAESGGGLVQPGGSLRLSCTASGIIFDYYSVDWYRQAPGKERELVATITGDGSPNYADSVKGRFTISRDNAKKTVYLQMNGLKPEETAVYYCHAKRTIGTKSEYWGQGTQVTVSS"}, "B10": {"name": "JKO-H2 (VHH)", "VHH": "QVQLAESGGGLVQAGGSLRLSCAASGRTFSSYVMGWFRQAPGKEREFVAAISRNGGKTYYADSVKGRFTISRDGTENTVYLQMNSLKPEDTAVYYCAAAVAASAEFVTARSNFYEYWGQGTQVTVSS", "notes": "also called JKO-H12"}, "B11": {"name": "JIK-B10 (VHH)", "VHH": "QVQLVETGGGLVQPGGSLRLSCAASGFTFSSYRMSWYRQAAGKERDVVATITANGVPTGYADSVMGRFTISRDNAKNTVYLEMNSLNPEDTAVYYCNAPRLHTSVGYWGQGTQVTVSS"}, "B12": {"name": "JIJ-B8 (VHH)", "VHH": "SGGGLVQPGGSLSVSCAASGSIARPGAMAWYRQAPGKERELVASITPGGLTNYADSVTGRFTISRDNAKRTVYLQMNSLQPEDTAVYYCHARIIPLGLGSEYRDHWGQGTQVTVSS"}, "B13": {"name": "JKO-A4 (VHH)", "VHH": "QVQLAESGGGSVQPGGSLRLSCAASGFTFSSYTMSWVRQAPGKGIEWVSDINGGGDRTDYADSVKGRFTISRDNARNTLYLQMNSLQPEDTAVYYCAKDLSYVSGTYFANDWGQGTQVTVSS"}, "B14": {"name": "JKO-E12 (VHH)", "VHH": "QVQLAETGGGLVQAGGSLRLSCLASRMSFSRRPMAWYRQAPGKQRERVATISSFGDTTNYTDSVEGRFTISRDNAKNTMYLQMNSLKPDDTAVYYCNTLLATYAWGQGTQVTVSS"}, "B15": {"name": "JKM-A6 (VHH)", "VHH": "QLQLAETGGGLVQPGGSLRLSCAASGATLDTYIITWFRQAPGKEREAVSCINRSGSTTYSDSVKGRFTISRDNAQKTVYLQMNSLNPEDTAIYYCAADASYRTCGGSWWNWAYWGQGTQVTVSS"}}, "key": {"[1]": {"target": "T1, anthrax protective antigen, wild type PA83 (Bacillus anthracis, UniProt P13423 30-764)", "T1 construct": "mature", "T1 sequence (P13423 30-764)": "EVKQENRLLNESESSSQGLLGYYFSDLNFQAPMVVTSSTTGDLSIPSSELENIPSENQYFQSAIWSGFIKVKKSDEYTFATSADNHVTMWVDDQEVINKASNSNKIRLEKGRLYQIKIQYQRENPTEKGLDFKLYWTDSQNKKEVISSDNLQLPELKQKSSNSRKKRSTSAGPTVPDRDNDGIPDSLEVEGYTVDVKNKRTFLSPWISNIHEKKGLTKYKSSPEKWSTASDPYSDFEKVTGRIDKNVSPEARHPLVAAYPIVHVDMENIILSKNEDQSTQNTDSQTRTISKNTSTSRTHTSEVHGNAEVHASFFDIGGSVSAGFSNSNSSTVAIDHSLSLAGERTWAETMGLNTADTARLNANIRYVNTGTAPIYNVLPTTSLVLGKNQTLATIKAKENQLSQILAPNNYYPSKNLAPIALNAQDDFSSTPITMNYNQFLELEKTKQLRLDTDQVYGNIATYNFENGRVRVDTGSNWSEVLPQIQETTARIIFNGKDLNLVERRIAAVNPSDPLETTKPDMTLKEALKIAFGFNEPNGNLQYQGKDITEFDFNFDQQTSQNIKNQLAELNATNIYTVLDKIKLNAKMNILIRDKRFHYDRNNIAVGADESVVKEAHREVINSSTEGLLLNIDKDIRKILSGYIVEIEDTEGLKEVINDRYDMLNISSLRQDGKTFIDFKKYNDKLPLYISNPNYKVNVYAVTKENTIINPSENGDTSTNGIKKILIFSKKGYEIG", "assay": "SPR (Biacore 3000)"}, "[2]": {"target": "T1, anthrax protective antigen, wild type …", "assay": "dilution ELISA on PA-coated plates"}, "[3]": {"target": "T1, anthrax protective antigen, wild type …", "assay": "SPR (ProteOn XPR36)"}, "[4]": {"target": "T1, anthrax protective antigen, wild type …", "assay": "cell-based or functional assay"}, "[5]": {"target": "T1, anthrax protective antigen, wild type …", "assay": "cell-based or functional assay", "remark": "listed apart in the source"}, "[6]": {"target": "T1, anthrax protective antigen, wild type …"}}, "data": [{"binder": "B1", "values": [{"measurement": "Kd", "setting": "[1]", "result": 1, "unit": "nM"}, {"measurement": "EC50", "setting": "[2]", "result": 0.3, "unit": "nM"}]}, {"binder": "B2", "values": [{"measurement": "Kd", "setting": "[3]", "result": 18, "unit": "nM"}, {"measurement": "EC50", "setting": "[2]", "result": 0.3, "unit": "nM"}, {"measurement": "IC50 (anthrax lethal toxin neutralization, RAW264.7 macrophages)", "setting": "[4]", "result": 9, "unit": "nM"}]}, {"binder": "B3", "values": [{"measurement": "Kd", "setting": "[1]", "result": 9, "unit": "nM"}, {"measurement": "EC50", "setting": "[2]", "result": 0.5, "unit": "nM"}]}, {"binder": "B4", "values": [{"measurement": "IC50 (read off the curve)", "setting": "[5]", "result": "~1", "unit": "nM"}, {"measurement": "Kd", "setting": "[3]", "result": 0.13, "unit": "nM"}, {"measurement": "EC50", "setting": "[2]", "result": 0.2, "unit": "nM"}, {"measurement": "IC50 (anthrax lethal toxin neutralization, RAW264.7 macrophages)", "setting": "[4]", "result": 1, "unit": "nM"}]}, {"binder": "B5", "values": [{"measurement": "Kd", "setting": "[3]", "result": 45, "unit": "nM"}, {"measurement": "EC50", "setting": "[2]", "result": 2, "unit": "nM"}]}, {"binder": "B6", "values": [{"measurement": "Kd", "setting": "[3]", "result": 12, "unit": "nM"}, {"measurement": "EC50", "setting": "[2]", "result": 0.4, "unit": "nM"}, {"measurement": "IC50 (anthrax lethal toxin neutralization, RAW264.7 macrophages)", "setting": "[4]", "result": 30, "unit": "nM"}]}, {"binder": "B7", "values": [{"measurement": "Kd", "setting": "[3]", "result": 66, "unit": "nM"}, {"measurement": "EC50", "setting": "[2]", "result": 0.5, "unit": "nM"}, {"measurement": "IC50 (anthrax lethal toxin neutralization, RAW264.7 macrophages)", "setting": "[4]", "result": 10, "unit": "nM"}]}, {"binder": "B8", "values": [{"measurement": "Kd", "setting": "[1]", "result": 7, "unit": "nM"}, {"measurement": "EC50 (read off the curve)", "setting": "[6]", "result": "~2", "unit": "nM"}, {"measurement": "IC50 (read off the curve)", "setting": "[5]", "result": "~4", "unit": "nM"}, {"measurement": "EC50", "setting": "[2]", "result": 2, "unit": "nM"}, {"measurement": "IC50 (anthrax lethal toxin neutralization, RAW264.7 macrophages)", "setting": "[4]", "result": 5, "unit": "nM"}]}, {"binder": "B9", "values": [{"measurement": "Kd", "setting": "[1]", "result": 200, "unit": "nM"}, {"measurement": "EC50", "setting": "[2]", "result": "> 100", "unit": "nM"}]}, {"binder": "B10", "values": [{"measurement": "Kd", "setting": "[1]", "result": 4, "unit": "nM"}, {"measurement": "EC50", "setting": "[2]", "result": 0.6, "unit": "nM"}]}, {"binder": "B11", "values": [{"measurement": "Kd", "setting": "[3]", "result": 9, "unit": "nM"}, {"measurement": "EC50", "setting": "[2]", "result": 0.2, "unit": "nM"}, {"measurement": "IC50 (anthrax lethal toxin neutralization, RAW264.7 macrophages)", "setting": "[4]", "result": 8, "unit": "nM"}]}, {"binder": "B12", "values": [{"measurement": "Kd", "setting": "[3]", "result": 8, "unit": "nM"}, {"measurement": "EC50", "setting": "[2]", "result": 0.4, "unit": "nM"}]}, {"binder": "B13", "values": [{"measurement": "Kd", "setting": "[1]", "result": 10, "unit": "nM"}, {"measurement": "EC50", "setting": "[2]", "result": 0.3, "unit": "nM"}]}, {"binder": "B14", "values": [{"measurement": "Kd", "setting": "[1]", "result": 0.2, "unit": "nM"}, {"measurement": "EC50", "setting": "[2]", "result": 0.1, "unit": "nM"}, {"measurement": "IC50 (anthrax lethal toxin neutralization, RAW264.7 macrophages)", "setting": "[4]", "result": 0.2, "unit": "nM"}]}, {"binder": "B15", "values": [{"measurement": "Kd", "setting": "[1]", "result": 20, "unit": "nM"}, {"measurement": "EC50", "setting": "[2]", "result": 0.3, "unit": "nM"}]}]}
